Assay results reported in article PMC13376213 (Nature Communications, 2026).
Ends that are not written are not given here.

Molecular target: USP11 tandem DUSP-UBL domain, tag cleaved (for FP) (human)
Test: fluorescence polarisation; saturation or displacement not stated for this experiment; 50 mM phosphate buffer pH 7.4, room temperature
Details: both partners purified

Chain of USP11 tandem DUSP-UBL domain, tag cleaved (for FP) (human) (chain, as listed by the source): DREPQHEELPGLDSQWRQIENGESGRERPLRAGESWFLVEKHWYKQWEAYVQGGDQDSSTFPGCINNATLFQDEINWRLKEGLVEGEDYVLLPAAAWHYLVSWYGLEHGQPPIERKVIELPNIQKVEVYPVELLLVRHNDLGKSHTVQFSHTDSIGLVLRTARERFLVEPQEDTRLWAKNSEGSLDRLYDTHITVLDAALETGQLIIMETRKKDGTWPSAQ

Kd: 200 to 300 µM
Binder: SAVTYPDWIGQSYSEV-NH2 (also: N-terminus FITC-labeled or acetylated, not given here which) [ORAI1 peptide used for FP]
